Test results as given in a protein production outcome set (Wang et al. 2014).

Assay: label from the status in PepcDB records

| Sequence | protein production |
| --- | --- |
| MPVHSRGDKKETNHHDEMEVDYAENEGSSSEDEDTESSSVSEDGDSSEMDDEDCERRRMECLDEMSNLEKQFTDLKDQLYKERLSQVDAKLQEVIAGKAPEYLEPLATLQENMQIRTKVAGIYRELCLESVKNKYECEIQASRQHCESEKLLLYDTVQSELEEKIRRLEEDRHSIDITSELWNDELQSRKKRKDPFSPDKKKPVVVSGPYIVYMLQDLDILEDWTTIRKAMATLGPHRVKTEPPVKLEKHLHSARSEEGRLYYDGEWYIRGQTICIDKKDECPTSAVITTINHDEVWFKRPDGSKSKLYISQLQKGKYSIKHS | not failed |
| MNIAFTFKNFEPSEHLKKYARRRFEKLARFVGKSANLELQVALSLDKFRQKAEVQLVGDSINIAAVEQSEDMYATIDLVLDKLEAQLKKHVSRVKERRRSARTNANIDVFTYHTEGEGEDRAIVGTDQFVPKPLHVDEAAMQLDALDYEFLVFLNAESERINVIYRRRNGDFGLIDPVV | failed |
| MRLVQLSRHSIAFPSPEGALREPNGLLALGGDLSPARLLMAYQRGIFPWFSPGDPILWWSPDPRAVLWPESLHISRSMKRFHKRSPYRVTMNYAFGQVIEGCASDREEGTWITRGVVEAYHRLHELGHAHSIEVWREBELVGGMYGVAQGTLFCGESMFSRMENASKTALLVFCEEFIGHGGKLIDCQVLNDHTASLGACEIPRRNYLNYLNQMRLGRLPNNFWVPRCLFSPQE | not failed |
| MTELVQQLALLDALLSNWDGVLVRMGAPDVLRDEALAALAVKLSSAESPDDLDLLLDDLFDLVEDTPAYDYVRGLIARARLDTGTVAKTRGGYAGELVSDDEKSLLFGASRLAGRALGNAVSADVEPCQVEVFFATNRKSSDASDLQFTGEHDAGGYTCGVAHVTIPVGVHRAGVLEGKRWWHLLREKDDSRRYVVLGSVEKLAEDLFTTRIVEGAPECRDLLVFLHGFNVTFEDAARQAAQFAFDLQFQGRVVLYSWPSLGSLAGYCADEERAFLSNGRFAGFLGMLEDGPWDKVHILAHSMGNRVMLYGLSGNSWPNGRISQVVFAAADVYVETFRELFPKIREKAALYTSYTSKKDRALLISGILHKAKRIGISRGEPFVMDGLETIDASKVDNGFPGHGYFAEETKLIEDISQLLGKGLSAGRRKLYQPPSKAYWDFR | failed |
| MKHLVTTALAYTNGPLHLGHARSTYIPADIYTRYLRLKGEEVIHVGGTDNHGVPITLTAEREGVKPIDIVDRYHNAIKADLDSLNVSFDTFGRTHSDIHIETAQEFYSKLKENGYIYEKEIEQFYCEKCDMYLADRYVEGICPFCEGEARGDHCEVCGRHLEPTELVNPYCIHCNSKPEIKRTTHYFFKLSAMQDVLKEYIENSPEMPEHVKNMALRWIEELHDWDVSRNIKWGVPIPGCDDQVMYVWIEAPIGYVSFTKQLGDLWKDYWLENTGDSKISHFIGKDITVHHAVFWPGILKGIGGYKMPNAVVSGGYLTLENKKMSTSKNWVVWVKDFIENFSSDYLRYFFMINAPLNRDTDFSWDDFQKRINTELIDIIGNFTHRTLVFTERKFGSTPVVDLNQLKDEDKKLISKCEDTLNRVDSLIREYNFKDALMEIIHLAKEGNGYFQGMAPWAIKDEERLKEVMYTCSVALKYIVYLLSSFMPEKTALLLEYMNEELDLEVRGNPLKKPKVIFTKVSDEDISRMKENLMKATKKAETKSDEKSKKVKSGEKMDIIDIDYFGNIDLRVGQILEVEEVPRSKKLYKITADLGDEKRQIVSGLKGAYEAEELVGKKVIIICNLKPAKLCGVESQGMLLAAEDDSIVSLLALDRDLPVGSKIH | failed |
| MYEDNAACIAQLKDGYIKGDRTKHILPKFFFTHDLQKSGDVRVLQIRSNDNLSDLFTKALPTATFKKLVYRIGLRRLKDLDEYTHKGE | failed |
| GMFGLVFNTRRATFADEKVREGLSYALDFEWLNRNILGGSFKRTQSYWQNSPLGAYGNAADERELALLGDAAKTMPAELLAGTYAMPTTDGTGADRKVLKLAVDKLKEAGYSIKNGKMSDANGRQLAFEIMTQNPAQERIALAYQRSLNLIGVAMGIRSVDDGQYQARSNSFDYDMIIRSLPSSLSPGMEQLNRWNSLSRDAQGSFNYAGVANPDIDRMIEALLQARSTEDFQAAVRAYDRLLVAGHYIIPLYYIG | failed |
